# Data published in patent US9238830.
# How the values were obtained:
# [1] = system: N. meningitidis MC58 pilin (PilE, expression product of pilE, Accession No. AAF40497)
# [2] = system: PilE N60A variant of N. meningitidis MC58 pilin (pPilEN60A)
# [3] = system: PilE N61A variant of N. meningitidis MC58 pilin (pPilEN61A)
# [4] = system: PilE S63A variant of N. meningitidis MC58 pilin (pPilES63A)
# [5] = system: PilE T62A variant of N. meningitidis MC58 pilin (pPilET62A)
substance,measurement,setting,value
"PglL oligosaccharyltransferase of N. meningitidis MC58 (Accession No. AAF41024), His10-tagged (pAMF5)","glycosylation of pilin in E. coli CLM24 (western blot, band shift)",[1],an extra band of slower electrophoretic mobility was detected with both a monoclonal anti-pilin antiserum and the C. jejuni glycan-specific R12 antiserum
same,transfer of O7 polysaccharide to PilE (western blot),[2],"mutation of N60, N61 and T62 do not affect glycosylation"
same,transfer of O7 polysaccharide to PilE (western blot),[3],"mutation of N60, N61 and T62 do not affect glycosylation"
same,transfer of O7 polysaccharide to PilE (western blot),[4],mutation S63A completely abolishes transfer of the polysaccharide to PilE
same,transfer of O7 polysaccharide to PilE (western blot),[5],"mutation of N60, N61 and T62 do not affect glycosylation"
